US12195506B2, “Immunotherapy with A*01 restricted peptides and combination of peptides against cancers and related methods” (Immatics Biotechnologies GmbH, priority 2018, dated 2025)

Molecular target: HLA-A*01:01 (Homo sapiens, UniProt P04439, A114D/A174V/A182V/D101N/D185E/E176A/E190D/L180R/Q94H/R68K/S129P/T187R/V100A/V91M/W191G)
Test: MHC binding assay: UV-ligand exchange, ELISA of stabilized MHC complexes (peptide exchange yield)
Settings: binding to HLA-A*01:01, UV-ligand exchange
Excerpt: Candidate peptides for T cell based therapies according to the present invention were further tested for their MHC binding capacity (affinity). The individual peptide-MHC complexes were produced by UV-ligand exchange, where a UV-sensitive peptide is cleaved upon UV-irradiation and exchanged with the peptide of interest as analyzed. Only peptide candidates that can effectively bind and stabilize the peptide-receptive MHC molecules prevent dissociation of the MHC complexes. To determine the yield of the exchange reaction, an ELISA was performed based on the detection of the light chain (β2m) of stabilized MHC complexes. The assay was performed as generally described in Rodenko et al. (Rodenko et al., 2006)
96 well MAXISorp plates (NUNC) were coated over night with 2 ug/ml streptavidin in PBS at room temperature, washed 4× and blocked for 1 h at 37° C. in 2% BSA containing blocking buffer. Refolded HLA-A*02:01/MLA-001 monomers served as standards, covering the range of 15-500 ng/ml. Peptide-MHC monomers of the UV-exchange reaction were diluted 100-fold in blocking buffer. Samples were incubated for 1 h at 37° C., washed four times, incubated with 2 ug/ml HRP conjugated anti-β2m for 1 h at 37° C., washed again and detected with TMB solution that is stopped with […]. Absorption was measured at 450 nm.

Peptide exchange	Substance
++ (>20% = ++)	182 (TQPELSSRY; listed as Homo sapiens) [compound 182]
++ (>20% = ++)	183 (LADTDLGMTF; listed as Homo sapiens) [compound 183]
++ (>20% = ++)	184 (KTIQEVAGY; listed as Homo sapiens) [compound 184]
++++ (>75% = ++++)	185 (NSDESADSEPHKY; listed as Homo sapiens) [compound 185]
++ (>20% = ++)	186 (AVSSGLFFY; listed as Homo sapiens) [compound 186]
++ (>20% = ++)	187 (TQKSVQVLAY; listed as Homo sapiens) [compound 187]
+++ (>50 = +++)	188 (DIPDYLLQY; listed as Homo sapiens) [compound 188]
++ (>20% = ++)	189 (FRGVFVHRY; listed as Homo sapiens) [compound 189]
++++ (>75% = ++++)	190 (VSSTVHNLY; listed as Homo sapiens) [compound 190]
+++ (>50 = +++)	191 (FTRAFDQLRM; listed as Homo sapiens) [compound 191]
++ (>20% = ++)	192 (LAFYYGMY; listed as Homo sapiens) [compound 192]
+++ (>50 = +++)	193 (SQNGQLIHY; listed as Homo sapiens) [compound 193]
+++ (>50 = +++)	194 (CYTADNEMGY; listed as Homo sapiens) [compound 194]
+++ (>50 = +++)	195 (YTADNEMGYY; listed as Homo sapiens) [compound 195]
++ (>20% = ++)	196 (RLAQYTIERY; listed as Homo sapiens) [compound 196]
++++ (>75% = ++++)	197 (NDEIDKLTGY; listed as Homo sapiens) [compound 197]
++ (>20% = ++)	198 (KLTDYINANY; listed as Homo sapiens) [compound 198]
++ (>20% = ++)	199 (LCAAVLAKY; listed as Homo sapiens) [compound 199]
++ (>20% = ++)	200 (SLPEFGLTY; listed as Homo sapiens) [compound 200]
++ (>20% = ++)	201 (SLPEFGLTYY; listed as Homo sapiens) [compound 201]

Peptide exchange	Substance
+++ (>50 = +++)	202 (QTDINGGSLK; listed as Homo sapiens) [compound 202]
++ (>20% = ++)	203 (LSQDELSKF; listed as Homo sapiens) [compound 203]
++ (>20% = ++)	204 (NVKEAPTEY; listed as Homo sapiens) [compound 204]
++ (>20% = ++)	205 (RMQEGSEVY; listed as Homo sapiens) [compound 205]
+++ (>50 = +++)	207 (LLEGEDAHLTQY; listed as Homo sapiens) [compound 207]
++ (>20% = ++)	208 (LLISKAEDY; listed as Homo sapiens) [compound 208]
++ (>20% = ++)	209 (EADPFLKYL; listed as Homo sapiens) [compound 209]
++++ (>75% = ++++)	210 (LLEADPFLKY; listed as Homo sapiens) [compound 210]
++ (>20% = ++)	211 (YLNEWGSRF; listed as Homo sapiens) [compound 211]
+++ (>50 = +++)	212 (MMTDLTSVY; listed as Homo sapiens) [compound 212]
+++ (>50 = +++)	213 (VSDSTTEITY; listed as Homo sapiens) [compound 213]
++ (>20% = ++)	214 (VQDPSLPVY; listed as Homo sapiens) [compound 214]
++ (>20% = ++)	215 (DTLEAATSLY; listed as Homo sapiens) [compound 215]
++++ (>75% = ++++)	216 (NSMLDPLVY; listed as Homo sapiens) [compound 216]
++ (>20% = ++)	217 (LMDEGAVLTL; listed as Homo sapiens) [compound 217]
+++ (>50 = +++)	218 (FTAQLQLY; listed as Homo sapiens) [compound 218]
+++ (>50 = +++)	219 (KTELETALYY; listed as Homo sapiens) [compound 219]
++ (>20% = ++)	220 (DVERIKDTY; listed as Homo sapiens) [compound 220]
+++ (>50 = +++)	221 (TDVERIKDTY; listed as Homo sapiens) [compound 221]
+ (>10% =+)	222 (GSPDAVVSY; listed as Homo sapiens) [compound 222]

Peptide exchange	Substance
+ (>10% =+)	223 (NAVDVVPSSF; listed as Homo sapiens) [compound 223]
++ (>20% = ++)	224 (RTDEGDNRVW; listed as Homo sapiens) [compound 224]
+++ (>50 = +++)	225 (STDPNIVRK; listed as Homo sapiens) [compound 225]
++ (>20% = ++)	226 (QITPKHNGLY; listed as Homo sapiens) [compound 226]
++ (>20% = ++)	227 (ESAPKEVSRY; listed as Homo sapiens) [compound 227]
++ (>20% = ++)	228 (KSFDDIAKY; listed as Homo sapiens) [compound 228]
+++ (>50 = +++)	230 (CVIETFHKY; listed as Homo sapiens) [compound 230]
++ (>20% = ++)	231 (LLPLLVMAY; listed as Homo sapiens) [compound 231]
++ (>20% = ++)	232 (RYLNIVHATQLY; listed as Homo sapiens) [compound 232]
++ (>20% = ++)	233 (RINSATGQY; listed as Homo sapiens) [compound 233]
++++ (>75% = ++++)	234 (YTDLTTIQV; listed as Homo sapiens) [compound 234]
++ (>20% = ++)	235 (SIEIDHTQY; listed as Homo sapiens) [compound 235]
++++ (>75% = ++++)	236 (VLDSLLAQY; listed as Homo sapiens) [compound 236]
+++ (>50 = +++)	237 (AQEAAVFLTLY; listed as Homo sapiens) [compound 237]
++++ (>75% = ++++)	238 (ETDWGLLKGHTY; listed as Homo sapiens) [compound 238]
+++ (>50 = +++)	239 (SSERGSPIEKY; listed as Homo sapiens) [compound 239]
++ (>20% = ++)	240 (EVLDSLLAQY; listed as Homo sapiens) [compound 240]
++ (>20% = ++)	241 (SLMVASLTY; listed as Homo sapiens) [compound 241]
+ (>10% =+)	242 (GTNLPTLLW; listed as Homo sapiens) [compound 242]

Substance	Peptide exchange
229 (MTDVFIDY; listed as Homo sapiens) [compound 229]	+++ (>50 = +++)
